Laboratory results: paper PMC10786891, “Massively parallel profiling of RNA-targeting CRISPR-Cas13d”
Residue numbers refer to the chain shown, from its start. Names and notes keep the numbering of the source.

T1: EsCas13d, nuclease-dead (Eubacterium siraeum, UniProt B0MS50, R295A;H300A;R849A;H854A)
T1 sequence: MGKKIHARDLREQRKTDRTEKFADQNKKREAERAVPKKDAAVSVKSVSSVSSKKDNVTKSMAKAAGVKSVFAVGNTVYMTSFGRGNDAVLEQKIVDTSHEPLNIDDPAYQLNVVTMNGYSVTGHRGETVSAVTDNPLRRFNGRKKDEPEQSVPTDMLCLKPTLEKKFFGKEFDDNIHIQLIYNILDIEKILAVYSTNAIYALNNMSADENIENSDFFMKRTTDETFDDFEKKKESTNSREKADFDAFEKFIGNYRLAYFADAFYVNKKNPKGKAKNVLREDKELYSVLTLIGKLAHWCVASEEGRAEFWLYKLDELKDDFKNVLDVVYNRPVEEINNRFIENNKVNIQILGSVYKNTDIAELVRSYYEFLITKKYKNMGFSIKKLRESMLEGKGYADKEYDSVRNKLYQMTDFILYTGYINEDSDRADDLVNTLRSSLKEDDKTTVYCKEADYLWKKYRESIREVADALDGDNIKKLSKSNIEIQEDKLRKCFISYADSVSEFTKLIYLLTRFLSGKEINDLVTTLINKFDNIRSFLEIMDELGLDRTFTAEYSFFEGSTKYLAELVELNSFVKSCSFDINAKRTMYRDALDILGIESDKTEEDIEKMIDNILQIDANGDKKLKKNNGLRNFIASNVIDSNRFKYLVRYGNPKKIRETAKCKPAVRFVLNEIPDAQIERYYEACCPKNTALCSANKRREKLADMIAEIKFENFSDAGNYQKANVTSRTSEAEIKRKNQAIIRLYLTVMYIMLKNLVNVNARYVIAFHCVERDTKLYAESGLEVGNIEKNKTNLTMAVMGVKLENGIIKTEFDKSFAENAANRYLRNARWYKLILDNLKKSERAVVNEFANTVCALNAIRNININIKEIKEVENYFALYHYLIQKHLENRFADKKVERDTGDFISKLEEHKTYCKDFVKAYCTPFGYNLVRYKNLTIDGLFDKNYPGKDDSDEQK

B1: target 2 MT 5'PFS UGU 3'PFS CGC (mixed)
RNA 1: CACCCGUGCAAAAUUGCAGGGGUCUAAAACCUUCUCCAAAUUGUUUCAUCCU
RNA 2: GGGAAUGGAUCCACAUCUACGAAUUCUGUAGGAUGAAACAAUUUGGAGAAGCGCAGAUCGGAAGAGCACACGU
B2: target 2 MT 5'PFS GGA 3'PFS AAC (mixed)
RNA 1: B1 RNA 1
RNA 2: B1 RNA 2 with U27G, U29A, C52A, G53A
B3: target 2 MT 5'PFS UAC 3'PFS CUU (mixed)
RNA 1: B1 RNA 1
RNA 2: B1 RNA 2 with G28A, U29C, G53U, C54U
B4: target 2 MT 5'PFS UUG 3'PFS ACG (mixed)
RNA 1: B1 RNA 1
RNA 2: B1 RNA 2 with G28U, U29G, C52A, G53C, C54G
B5: target 2 MT 5'PFS AAC 3'PFS AGC (mixed)
RNA 1: B1 RNA 1
RNA 2: B1 RNA 2 with U27A, G28A, U29C, C52A
B6: target 2 MT 5'PFS ACG 3'PFS CUU (mixed)
RNA 1: B1 RNA 1
RNA 2: B1 RNA 2 with U27A, G28C, U29G, G53U, C54U
B7: target 2 MT 5'PFS UAC 3'PFS CUG (mixed)
RNA 1: B1 RNA 1
RNA 2: B1 RNA 2 with G28A, U29C, G53U, C54G
B8: target 2 MT 5'PFS GCA 3'PFS AUU (mixed)
RNA 1: B1 RNA 1
RNA 2: B1 RNA 2 with U27G, G28C, U29A, C52A, G53U, C54U
B9: target 2 MT 5'PFS GGA 3'PFS AAA (mixed)
RNA 1: B1 RNA 1
RNA 2: B1 RNA 2 with U27G, U29A, C52A, G53A, C54A
B10: target 2 MT 5'PFS UAA 3'PFS AUA (mixed)
RNA 1: B1 RNA 1
RNA 2: B1 RNA 2 with G28A, U29A, C52A, G53U, C54A
B11: target 2 MT 5'PFS GCA 3'PFS AUG (mixed)
RNA 1: B1 RNA 1
RNA 2: B1 RNA 2 with U27G, G28C, U29A, C52A, G53U, C54G
B12: target 2 MT 5'PFS UAA 3'PFS AUU (mixed)
RNA 1: B1 RNA 1
RNA 2: B1 RNA 2 with G28A, U29A, C52A, G53U, C54U
B13: target 2 MT 5'PFS UGC 3'PFS UGC (mixed)
RNA 1: B1 RNA 1
RNA 2: B1 RNA 2 with U29C, C52U
B14: target 2 MT 5'PFS ACA 3'PFS CCG (mixed)
RNA 1: B1 RNA 1
RNA 2: B1 RNA 2 with U27A, G28C, U29A, G53C, C54G
B15: target 2 MT 5'PFS UAC 3'PFS CUC (mixed)
RNA 1: B1 RNA 1
RNA 2: B1 RNA 2 with G28A, U29C, G53U
B16: target 2 MT 5'PFS UAA 3'PFS AUG (mixed)
RNA 1: B1 RNA 1
RNA 2: B1 RNA 2 with G28A, U29A, C52A, G53U, C54G
B17: target 2 MT 5'PFS CAG 3'PFS AAA (mixed)
RNA 1: B1 RNA 1
RNA 2: B1 RNA 2 with U27C, G28A, U29G, C52A, G53A, C54A
B18: target 2 MT 5'PFS UUG 3'PFS ACU (mixed)
RNA 1: B1 RNA 1
RNA 2: B1 RNA 2 with G28U, U29G, C52A, G53C, C54U
B19: target 2 MT 5'PFS UAA 3'PFS AUC (mixed)
RNA 1: B1 RNA 1
RNA 2: B1 RNA 2 with G28A, U29A, C52A, G53U
B20: target 2 MT 5'PFS AAC 3'PFS CAU (mixed)
RNA 1: B1 RNA 1
RNA 2: B1 RNA 2 with U27A, G28A, U29C, G53A, C54U
B21: target 2 MT 5'PFS UUG 3'PFS UCC (mixed)
RNA 1: B1 RNA 1
RNA 2: B1 RNA 2 with G28U, U29G, C52U, G53C
B22: target 2 MT 5'PFS UAC 3'PFS CUA (mixed)
RNA 1: B1 RNA 1
RNA 2: B1 RNA 2 with G28A, U29C, G53U, C54A
B23: target 2 MT 5'PFS GGA 3'PFS AAG (mixed)
RNA 1: B1 RNA 1
RNA 2: B1 RNA 2 with U27G, U29A, C52A, G53A, C54G
B24: target 2 MT 5'PFS GUA 3'PFS CCA (mixed)
RNA 1: B1 RNA 1
RNA 2: B1 RNA 2 with U27G, G28U, U29A, G53C, C54A
B25: target 2 MT 5'PFS GCA 3'PFS AUC (mixed)
RNA 1: B1 RNA 1
RNA 2: B1 RNA 2 with U27G, G28C, U29A, C52A, G53U
B26: target 2 MT 5'PFS GGA 3'PFS AAU (mixed)
RNA 1: B1 RNA 1
RNA 2: B1 RNA 2 with U27G, U29A, C52A, G53A, C54U
B27: target 2 MT 5'PFS GUG 3'PFS UAG (mixed)
RNA 1: B1 RNA 1
RNA 2: B1 RNA 2 with U27G, G28U, U29G, C52U, G53A, C54G
B28: target 2 MT 5'PFS UUG 3'PFS ACA (mixed)
RNA 1: B1 RNA 1
RNA 2: B1 RNA 2 with G28U, U29G, C52A, G53C, C54A
B29: target 2 MT 5'PFS UUG 3'PFS ACC (mixed)
RNA 1: B1 RNA 1
RNA 2: B1 RNA 2 with G28U, U29G, C52A, G53C
B30: target 2 MT 5'PFS GCA 3'PFS AUA (mixed)
RNA 1: B1 RNA 1
RNA 2: B1 RNA 2 with U27G, G28C, U29A, C52A, G53U, C54A
B31: target 1 C4A,C6A (mixed)
RNA 1: CACCCGUGCAAAAAUGCAGGGGUCUAAAACUGAGCGGAUAACCUCUCUAUGG
RNA 2: GGGAAUGGAUCCACAUCUACGAAUUCGUACCAUAGAGAGGUUAUCAGAUCACCGAGAUCGGAAGAGCACACGU
B32: target 1 insU 3' of 18,insG 3' of 8 (mixed)
RNA 1: B31 RNA 1
RNA 2: GGGAAUGGAUCCACAUCUACGAAUUCGUACCAUAUGAGAGGUUAUGCCGCUCACCGAGAUCGGAAGAGCACACGU
B33: target 1 insG 3' of 22,insA 3' of 7 (mixed)
RNA 1: B31 RNA 1
RNA 2: B32 RNA 2 with C31G, A32C, U33A, A34U, U35A, G46C, C47A

Target: T1, EsCas13d, nuclease-dead
Assay: crRNA (strand 1, pre-loaded); Mg2+; 40 mM Tris-HCl pH 7.5, 150 mM NaCl, 6 mM MgCl2, 1 mM DTT, 0.1% Tween-20, 0.2 mg/ml BSA; 25 C; 10 min per concentration, then washed
Settings: tags: His6-TwinStrep-SUMO cleaved; N-terminal SNAP kept (SNAP-Surface 488); label: 3' end held by stalled T7 RNA polymerase

Binder	Kd [nM]
B1	18.5 ± 2.9
B2	7.4 ± 0.7
B3	7.2 ± 1.1
B4	18.5 ± 1.6
B5	4.4 ± 1.5
B6	11.1 ± 2.1
B7	10.4 ± 1.7
B8	10.3 ± 1
B9	8.6 ± 1.9
B10	4.3 ± 0.6
B11	8.8 ± 0.9
B12	3.9 ± 0.6
B13	64 ± 18
B14	6.3 ± 1
B15	16 ± 6
B16	5.6 ± 1.5
B17	7.5 ± 2

Binder	Kd [nM]
B18	16.2 ± 1.8
B19	5.1 ± 0.5
B20	~8
B21	42 ± 7
B22	6.8 ± 1
B23	9.3 ± 1.4
B24	17.3 ± 2.4
B25	14 ± 4
B26	6.7 ± 0.6
B27	13.3 ± 1.3
B28	15 ± 1.4
B29	47 ± 10
B30	7.2 ± 1
B31	6.17 ± 0.31
B32	41 ± 4
B33	15.2 ± 1
